Test results from the DeepSol protein solubility set.

Assay: soluble on expression in E. coli; label from the status in PepcDB or PDB records

| Sequence | soluble on expression in E. coli |
| --- | --- |
| MTQKRTLLKYGILSLALAAPLSACAFDSLTVIGDSLSDTGNNGRWTWDSGQNKLYDEQLAERYGLELSPSSNGGSNYAAGGATATPELNPQDNTADQVRQWLAKTGGKADHNGLYIHWVGGNDLAAAIAQPTMAQQIAGNSATSAAAQVGLLLDAGAGLVVVPNVPDISATPMLLEAVITAGLGAAAPPALKAALDALAEGATPDFASRQQAIRKALLAAAATVSSNPFIQQLLVEQLLAGYEAAAGQASALTDYYNQMEEKGLEQHGGNIARADINGLFKEILANPQAFGLTNTVGMACPPGVSASACSSAMPGFNASQDYLFADHLHPGPQVHTIIAQYIQSIIAAPVQATYLNQSVQSMAQGSRTTLDSRYQQLRQGENPVGSLGMFGGYSGGYQRYDNNEADGNGNHNNLTVGVDYQLNEQVLLGGLIAGSLDKQHPDDNYRYDARGFQAAVFSHLRAGQAWLDSDLHFLSAKFSNIQRSITLGALRRVEEGETNGRLWGARLTSGYDFVMVPWLTTGPMLQYAWDYSHVNGYSEKLNTSTSMRFGDQNAHSQVGSAGWRLDLRHSIIHSWAQINYRRQFGDDTYVANGGLKSTALTFSRDGKTQDKNWVDIAIGADFPLSATVSAFAGLSQTAGLSDGNQTRYNVGFSARF | not soluble |
| MTQQGAALQNYNNELVKCIEELCQKREELCRQIQQEEDEKQRLQNEVRQLTEKLARVNENLARKIASRNEFDRTIAETEAAYLKILESSQTLLSVLKREAGNLTKATASDQKSSGGKDS | not soluble |
| MTRGPIFLNVGISYGLPRTKLPAAVSFRKWVAATLQGRIRKADLAIRIVDEKEGRALNYHYRNKDYATNVLSFPAQLPEPLPKALKIPLLGDIVMCAPVIAREAAEQGKSLSAHYAHLTVHGTLHLLGWNHEDHQEADAMEQLEREILANLGISDPYLEEY | soluble |
| MTRNPVVAGMFYPAEYHELLEMIEYCYLNPRGPRELPSKRGKYTKPLGIVSPHAGYIYSGPVAAHGYKKISENISGEITAIILGPNHTGLGSGIATMKGTWKTPFGDMEIDNEFADRLWKECDILDMDENSHLREHSIEVQLPFLKHLEDLNIAKFKFVPISMMMQDYESCIDVGYVIAKVARELNRKIVIIASTDFSHYEPQEQASKKDAVVIKDILELNDEEIFTDVVTHTISMCGYGPVIAMVKAMKDLGARTSYLLYYSTSGDVTKDYSEVVGYASLLIKLEHHHHHH | soluble |
| MTRRCELLVVGAGPAGMAAATQSAALGVDTLLLDEQATPGGQIYRAITTTALTRPDILGPDYWHGASLLEPLRASGAAYLSGATVWAVSRGAEAGDGGAFEVAYSVGGQADILRARHILLATGALERPFPIPGWTLPGVVTAGAAQILLKTAAIVPGEHAVLAGGGPLLYLLAWQYLNAGVRIERLLETTAPGGLARALPHALDFLRSPYLAKGLKLMRAVRAHVPITRGVRDLRAQGRERLESLSYRAGGRTHDMPARHLMLHQGVVPNLNLSRALGVDHQWNPTQACWQPRVDDWGATSVAGIGIAGDGADIGGAIAAEHRGRLAALQAAVALGRIDDARRDREARAPRRALARAMRGRAFFDVLYRPADAYRRPGDDTIVCRCEEITAGQIRATVRLGCSGPNQMKAFLRCGMGPCQGRLCGLTVSELIAHERGVPLPEVGYYRLRFPTKPVTLGELASLPQTEASRQAVVRLKKTALEHHHHHH | not soluble |
| MTSIDVTEIIKSSTSSLYQPARKKSRFDDSASSSSQAGQPKPEDILAALEADQSNYVALDDVQVKKLVIQLDKKMRLNREQRVKNPDDAQKFMESEIELDKAIQEMHSLASQPDLYGSFVEVNGVEILLQLLGHENTDIVCATLSLLRELTDDDVMNEGEDGAAELIESLVSGSIITTLLACVERLDESVKDEADGVHNALGVVDNMIGFRDDITEECVKHGFTVWLLKRCFQKGAFDANKMYASELLSVILQTSDTAKAKLTEKIDGIDILLRTIAVYKKNDPANVDEREYMENLFNSLCAALMHPANRKKFLDGEGLQLMNLMLREKKQARQSALKVLNHATSGDEGIENCNKLVEMLGLRTIFPLFMRTPSKTKRKDTTPDEHEEHVCTILSSLLAACSENHRQRIVQKFVEHEHEKVDRAVELFLKYKEKVQRFELKKKRQSQEAGTSEDDDPDRAYLDKLDNGLYTLQRLTLILGEVAVGVESARLREEKLFQMKMSQNRLDLMLCPIIQEYSDNLGDDANIEQERVLVMLSKIEDFYK | not soluble |
| MTSLSSPSPIQHTTSSFLNNFMPTPSLINLQQGYRNPDLGSQDLARLDASRHESIQKVSRKLSTYEEEKNLIENELEEIERTGARLLSIVEQKDNFLASRIRRFMEKSKELVGIETLLRLQLNKHNERIKDGLIDISAARGEESYLQKRFKDTDFLRKISARREIDYDKELSEIFTDDQFHRWVMFKKATLQLLQTESSVSYYIRESNAKLDALHLAPRGTSA | not soluble |
| MTSPASCSPPNEKRTGSPFPPESRSLPSTMEMTMNTIFRPAPHPLPDAPFYTPLGNECVLFESAWVRQLPLLLKGPTGCGKTRFVSHMAAKLGLPLSTISCHDDLAAADLTGRYLLKGGETVWMDGPLTRSVRQGGICYLDEIVEARKDVAVVLHPLTDDRRILPLERTGEVLEAPSGFMLVVSYNPGYQNLLKSLKPSTRQRFVAIEFDFLPKEQEIAVVSHESGLDARDVEPLVDLAHRLRGLKGHDLEEGVSTRLLVYCASLIDTGLPARQAVRATMIEPLTDEPDVKAALHEVADAIIRLEHHHHHH | not soluble |
| MTSPYATIVDAREFNAPMFAEKIDRALRAGEKDAVVNVITSISNAQRQQLREPYKLKYGKDIIQALDKKFSGDLEKAIFALMETPLDYDVKQLKAAMKGLGTDEAVLIEILCSRTVDQLRAIRVTYEKEYGKALEADIAGDTSGEFRDLLVSLVTGSKDGSHDTNDAQAKDDAVRLFADGKAKLAKKDGTHFLHILATQNQYQLRKVFAYFQELAGGSIEKSIEKEFSGDLQKSYLTIVRAASDKQKFFAQQLHASMKGLGTRDNDLIRVIVTRSEVDLELIKAEFQELYSKSLADTVKGDTSGAYRDALLSIINGNHATAH | not soluble |
| MTSRMQPKSGVYSVSKADFTKIFEDVPKVPITSAVDLRNKFDAVRIILSNSSEDWNKRQTQLKTVRSLVIHGEKVVDRPTMIAHLVQLLGCFELAVKDLRSQVLREAAITCSFIVSKYGIETHSIGEDILVPAMSQVAVSTKIMATSASTLTEFIVEYVQTRQVFTILSSFSTSKDKSQRRQLAALLEIVISKWSDRIKKQIMRQICELIKSAINDADSETRAAGRRAFAKLDEMHSEEADALYLELDHSKQKMLRGGDAASSWASVNSEKGSIPIRSKLSAGSKAHMNISAISEKKEGIKKLLPIVADTSLNPIEIKNIGNCLNRLLSDASNTMVLEIYSIFVRTHSSRLSEWLRLALAKLFARKAAETLPNTKKQIGHTLNVILECFNAHHQLVTVCELMCDPIHLMVPKARVVLLEYLTSLLDEYTEPGASINAKELKTAIRKMLTWASDPRLSILLTPHVEKAICSMFCVNVADFSALISDLDSEQKNWIHQTLQRNGLENGISSNNIATNSGATASRETSNTSFQKESTSFGLPEFGARKGGTGVNLGSLNISNNLALSRLEEQSTSRLMEKVNLNSTVTLPPDTLEKIQNVQDLLQKMRSSENADEQESAISSIYMMICDGGFGVWEQCYAKLLLNLFEILSKSRSENNKKMCLRILGKMCTAQAAKLFDSTEMAVCKVLDAAVNTNDATTALAVEDCLRTLATHLPLSNIINIAKVILNQEPIDDERASLVLKMVTRLFEELPAEELNNIVDDITPTIIKAYQSTSSTVRKTVVYCLVAMVNRVGEQRMTPHFTKLPKAMTNLIQVYVNRAISTSLPRL | not soluble |
| MTTFSHSSTTPSVSVTTASGNNQSQLVATPVPDEQRISFWPQHFGLIPQWVTLEPRVFGWMDRLCEDYCGGIWNLYTLNNGGAFIAPEPDEDDGETWILFNAMNGNRAEMSPEAAGIAACLMTYSHHACRTECYAMTVHYYRLRDYALQHPECSAIMRIID | not soluble |
| MTTIDLNCDLGESFGAYKMGNDDEILPFVSSINVACGFHAGDPSIMRQTVEKALEHNVAIGAHPGFPDLIGFGRRNMNVSASEVYDYVLYQTGALDAFVKAAGGKMQHVKPHGALYNMAASNPEIADAIAKAIYHINPSLLLYGLANSEAFIQAAEKYKVTLVQEAFADRTYKQDGTLTSRTEENALIKDEDEAIKQVLQMVKEGYVNSVNGEKVAVQAQTICLHGDGEKAVQFAERIYRTFKLNGISICAPKLEHHHHHH | soluble |
| MTTKKFRMEDVGLSKLKVEKNPKDVKQTEWKSVLPNEVYRVARESGTETPHTGGFNDHFEKGRYVCLCCGSELFNSDAKFWAGCGWPAFSESVGQDANIVRIVDRSHGMHRTEVRCKTCDAHLGHVFNDGPKETTGERYCINSVCMAFEKKD | soluble |
| MTTKNTLQPTEAAYIAGFLDGDGSIYAKLIPRPDYKDIKYQVSLAISFIQRKDKFPYLQDIYDQLGKRGNLRKDRGDGIADYTIIGSTHLSIILPDLVPYLRIKKKQANRILHIINLYPQAQKNPSKFLDLVKIVDDVQNLNKRADELKSTNYDRLLEEFLKAGKIESSPTGSGSGSKHPTLTLPTTTSQENLPNGSGSGSGTMTTKNTLQPTEAAYIAGFLDGDGSIYAKLIPRPDYKDIKYQVSLAISFIQRKDKFPYLQDIYDQLGKRGNLRKDRGDGIADYTIIGSTHLSIILPDLVPYLRIKKKQANRILHIINLYPQAQKNPSKFLDLVKIVDDVQNLNKRADELKSTNYDRLLEEFLKAGKIESSP | soluble |
| MTTLPPPATELSADEARRLALRAQGFLGAPDRRAGVRGVLRHLGAVQLDTISVLARSHELIPYARLGAVGRRTVDDAYWTDTHAFEYWSHAACILPIEEWPHFAFRRRAYRNRPHWNHHLPEGDYDRVVKQLREEGPLTATDLGGAKRTSEWWDWSGTKVAVERALMYGEVVCVERRGWKRVYDLAERAVPAALLHDDLDDTECLRRLVRLAGQSLGVGTRADIADYHRLKAEQVDAVIADSGLVPVTVAGWGRPAWADPAALETVPRGRHRTTLLSPFDSLIWERARTERIFGFTHRLEAYVPRQKRVHGYFAMPVLAGGRLVGRVDPAREGRTLVAKQVTLDGPKAAPAVAQALVEAAGWVDCTNVRVERVETPDLREPLARELARLLDLEHHHHHH | not soluble |
| MTTMSGYTRSQRPRQAILGQLPRIHRADGSPIRVLLVDDEPALTNLVKMALHYEGWDVEVAHDGQEAIAKFDKVGPDVLVLDIMLPDVDGLEILRRVRESDVYTPTLFLTARDSVMDRVTGLTSGADDYMTKPFSLEELVARLRGLLRRSSHLERPADEALRVGDLTLDGASREVTRDGTPISLSSTEFELLRFLMRNPRRALSRTEILDRVWNYDFAGRTSIVDLYISYLRKKIDSDREPMIHTVRGIGYMLRPPE | not soluble |
| MTTPSPQEISTVTLNSLSKEERKKAILALQTKKNEIKLVIDEHQKKLAEFRQSIPDGCCEMFENEKKIRLKHSSTAELLPHLQKVGSSSVDKEKMINNIRQRVEVQVADQETFKSIEERNELLRRENENLKKEVNTVAAELLQEFESYE | not soluble |
| MTTRDLTAAYFQQTISANSNVLVYFWAPLCAPCDLFTPTYEASSRKHFDVVHGKVNIETEKDLASIAGVKLLPTLMAFKKGKLVFKQAGIANPAIMDNLVQQLRAYTFKSPAGEGIGPGTKTSS | soluble |
| MTTRRLALFDLDHTLLPLDSDYQWADFLARTGRAGDPAEARRRNDDLMERYNRGELTAEQAAEFMLGLLAAHSPVELAAWHEEFMRDVIRPSLTVQAVDVVRGHLAAGDLCALVTATNSFVTAPIARAFGVQHLIATDPEYRDGRYTGRIEGTPSFREGKVVRVNQWLAGMGLALGDFAESYFYSDSVNDVPLLEAVTRPIAANPSPGLREIAQARGWQVIDLFDHLEDAKS | soluble |
| MTVAVSPDGLPALVLNADYRPLSYYPLSLWSWQDAIKAVFLDRVNIVAEYEHAVSSPTFSMKLPSVVSLKAYVKPSRHPAFTRFNVFLRDRFQCQYCGTPDDLTFDHVIPRHRGGATTWENVVAACSPCNLRKGGMMPAHAKMWPLQKPYQPTVHDLHNNGRLFPPNHLHESWMDYLYWDVELEPLEHHHHHH | not soluble |
